# Measurements: patent publication US8541373B2, “BChE albumin fusions for the treatment of cocaine abuse” (priority 2009, dated 2013)
# Several values for one entry are separate records, joined by “and”; a condition that tells them apart may be missing. Equal entries are not always repeated.
# Assay: AlbuBChE serum pharmacokinetics after single IM dose (ELISA)
# Protocol: The study included a total of 11 naïve, adult male cynomolgus monkeys divided into four dose groups: • a control group of two cynomologus monkeys that only received a single IV dose of cocaine; • three dose groups that were treated with a single IM dose of AlbuBChE at 0.2, 1 or 5 mg/kg. Three naïve, adult male cynomolgus monkeys were used in each dose group. Following AlbuBChE treatment, a 1 mg/kg IV dose of cocaine was administered at 2, 48, 96, 120, and 240 hours after AlbuBChE dose administration.
# A single intramuscular (IM) administration of AlbuBChE was administered on study day 1 and blood was collected at the time points outlined in Table 2. Approximately 0.5 mL of whole blood was collected from the femoral vein into serum separate tubes (SST).
# Blocking is done with 2% Casein in 1×PBS, 200 μL/well, 2 hours at room temperature. After washing, 100 μL of diluted serum samples are added to the plates along with standards. Standards are generated through 3.64 fold, serial dilution of AlbuBChE from 2000 to 3.1 ng/mL. Serum samples and standards are maintained at 10% serum by dilution with buffer containing pooled cynomolgus monkey serum. A wash step precedes detection with 100 μL of anti-HSA mAb-6502-HRP at 0.04 μg/mL for 1 hour. Wells are washed again, prior to developing with 100 μl of TMB substrate. After 15 minutes, the reaction is terminated with 100 μL/well of 1N H2SO4 and read on SpectraMax plate reader at 450/570 nm. Values for unknown serum samples are calculated by interpolation of standard curve generated by 4-parameter fit of AlbuBChE standards. The limit of quantitation in cynomolgus serum was 21.1 ng/mL.
# AlbuBChE pharmacokinetic parameter values were determined using serum concentration-time profiles for individual animals. The computer software WinNonlin Professional (Version 4.0.1 Pharsight Corporation, USA) was used. Specifically the model for non-compartmental analysis with extravascular input was applied. If there were fewer than 3 data points in the terminal phase of the serum concentration curve, a terminal phase half-life and PK parameters derived from the half-life were not calculated for that profile. Parameters analyzed include tmax, Cmax, t1/2, AUC(0-t) and AUC(0-∞) were calculated.
substance,measurement,setting,value
AlbuBChE,"AUC % Extrap, individual animals",0.2 mg/kg IM,19.3% and 18.8% and 14.1%
same,"AUC(0-t), individual animals",0.2 mg/kg IM,2746 ng·h/mL and 7878 ng·h/mL and 8479 ng·h/mL
same,"AUC(0-∞), individual animals",0.2 mg/kg IM,3404 ng·h/mL and 9704 ng·h/mL and 9867 ng·h/mL
same,"Cmax, individual animals",0.2 mg/kg IM,176 ng/mL and 279 ng/mL and 281 ng/mL
same,Dose Normalized AUC(0-∞),0.2 mg/kg IM,38292
same,Dose Normalized Cmax,0.2 mg/kg IM,1226
same,Mean AUC % Extrap,0.2 mg/kg IM,17.4%
same,Mean AUC(0-t),0.2 mg/kg IM,6368 ng·h/mL
same,Mean AUC(0-∞),0.2 mg/kg IM,7658 ng·h/mL
same,Mean Cmax,0.2 mg/kg IM,245 ng/mL
same,Mean t½,0.2 mg/kg IM,27.2 h
same,"Tmax, individual animals",0.2 mg/kg IM,3 h
same,"t½, individual animals",0.2 mg/kg IM,15.3 h and 42.1 h and 24.4 h
same,"AlbuBChE serum concentration, individual animals","0.2 mg/kg IM, 1 hr post dose",37.1 ng/mL and 235.4 ng/mL and 111.0 ng/mL
same,Mean AlbuBChE serum concentration,"0.2 mg/kg IM, 1 hr post dose",128 ng/mL
same,"AlbuBChE serum concentration, individual animals","0.2 mg/kg IM, 3 hr post dose",176.1 ng/mL and 278.5 ng/mL and 280.7 ng/mL
same,Mean AlbuBChE serum concentration,"0.2 mg/kg IM, 3 hr post dose",245 ng/mL
same,"AlbuBChE serum concentration, individual animals","0.2 mg/kg IM, 6 hr post dose",144.0 ng/mL and 212.1 ng/mL and 272.4 ng/mL
same,Mean AlbuBChE serum concentration,"0.2 mg/kg IM, 6 hr post dose",210 ng/mL
same,"AlbuBChE serum concentration, individual animals","0.2 mg/kg IM, 12 hr post dose",88.4 ng/mL and 143.1 ng/mL and 197.9 ng/mL
same,Mean AlbuBChE serum concentration,"0.2 mg/kg IM, 12 hr post dose",143 ng/mL
same,"AlbuBChE serum concentration, individual animals","0.2 mg/kg IM, 24 hr post dose",52.3 ng/mL and 95.2 ng/mL and 135.7 ng/mL
same,Mean AlbuBChE serum concentration,"0.2 mg/kg IM, 24 hr post dose",94.4 ng/mL
same,"AlbuBChE serum concentration, individual animals","0.2 mg/kg IM, 36 hr post dose",29.8 ng/mL and 68.3 ng/mL and 87.4 ng/mL
same,Mean AlbuBChE serum concentration,"0.2 mg/kg IM, 36 hr post dose",61.8 ng/mL
same,"AlbuBChE serum concentration, individual animals","0.2 mg/kg IM, 48 hr post dose",<LLOQ and 66.4 ng/mL and 80.7 ng/mL
same,Mean AlbuBChE serum concentration,"0.2 mg/kg IM, 48 hr post dose",73.6 ng/mL
same,"AlbuBChE serum concentration, individual animals","0.2 mg/kg IM, 72 hr post dose",<LLOQ and 44.5 ng/mL and 39.5 ng/mL
same,Mean AlbuBChE serum concentration,"0.2 mg/kg IM, 72 hr post dose",42.0 ng/mL
same,"AlbuBChE serum concentration, individual animals","0.2 mg/kg IM, 96 hr post dose",<LLOQ (2×) and 30.1 ng/mL
same,Mean AlbuBChE serum concentration,"0.2 mg/kg IM, 96 hr post dose",<LLOQ
same,"AlbuBChE serum concentration, individual animals","0.2 mg/kg IM, 128 hr post dose",<LLOQ
same,Mean AlbuBChE serum concentration,"0.2 mg/kg IM, 128 hr post dose",<LLOQ
same,"AlbuBChE serum concentration, individual animals","0.2 mg/kg IM, 144 hr post dose",<LLOQ
same,Mean AlbuBChE serum concentration,"0.2 mg/kg IM, 144 hr post dose",<LLOQ
same,"AlbuBChE serum concentration, individual animals","0.2 mg/kg IM, 168 hr post dose",<LLOQ
same,Mean AlbuBChE serum concentration,"0.2 mg/kg IM, 168 hr post dose",<LLOQ
same,"AlbuBChE serum concentration, individual animals","0.2 mg/kg IM, 216 hr post dose",<LLOQ
same,Mean AlbuBChE serum concentration,"0.2 mg/kg IM, 216 hr post dose",<LLOQ
same,"AlbuBChE serum concentration, individual animals","0.2 mg/kg IM, 264 hr post dose",<LLOQ
same,Mean AlbuBChE serum concentration,"0.2 mg/kg IM, 264 hr post dose",<LLOQ
same,tmax,"0.2 mg/kg IM, group value",3 h
same,"AUC % Extrap, individual animals",1 mg/kg IM,2.54% and 3.67% and 2.90%
same,"AUC(0-t), individual animals",1 mg/kg IM,43128 ng·h/mL and 51298 ng·h/mL and 46185 ng·h/mL
same,"AUC(0-∞), individual animals",1 mg/kg IM,44251 ng·h/mL and 53255 ng·h/mL and 47564 ng·h/mL
same,"Cmax, individual animals",1 mg/kg IM,1666 ng/mL and 1374 ng/mL and 1956 ng/mL
same,"Tmax, individual animals",1 mg/kg IM,3 h
same,"t½, individual animals",1 mg/kg IM,28.4 h and 34.3 h and 30.3 h
same,Dose Normalized AUC(0-∞),1.0 mg/kg IM,48357
same,Dose Normalized Cmax,1.0 mg/kg IM,1665
same,Mean AUC % Extrap,1.0 mg/kg IM,3.04%
same,Mean AUC(0-t),1.0 mg/kg IM,46871 ng·h/mL
same,Mean AUC(0-∞),1.0 mg/kg IM,48357 ng·h/mL
same,Mean Cmax,1.0 mg/kg IM,1665 ng/mL
same,Mean t½,1.0 mg/kg IM,31 h
same,"AlbuBChE serum concentration, individual animals","1.0 mg/kg IM, 1 hr post dose",1058.9 ng/mL and 462.4 ng/mL and 1598.6 ng/mL
same,Mean AlbuBChE serum concentration,"1.0 mg/kg IM, 1 hr post dose",1040 ng/mL
same,"AlbuBChE serum concentration, individual animals","1.0 mg/kg IM, 3 hr post dose",1665.5 ng/mL and 1374.0 ng/mL and 1956.0 ng/mL
same,Mean AlbuBChE serum concentration,"1.0 mg/kg IM, 3 hr post dose",1665 ng/mL
same,"AlbuBChE serum concentration, individual animals","1.0 mg/kg IM, 6 hr post dose",1269.3 ng/mL and 1266.3 ng/mL and 1596.1 ng/mL
same,Mean AlbuBChE serum concentration,"1.0 mg/kg IM, 6 hr post dose",1377 ng/mL
same,"AlbuBChE serum concentration, individual animals","1.0 mg/kg IM, 12 hr post dose",884.3 ng/mL and 968.1 ng/mL and 1049.5 ng/mL
same,Mean AlbuBChE serum concentration,"1.0 mg/kg IM, 12 hr post dose",967 ng/mL
